Measurements: a protein production outcome set (Wang et al. 2014)

Experiment: label from the status in PepcDB records

| Sequence | protein production |
| --- | --- |
| MDEGMQIVGAVSGLSTPFNQNVSLECYNGILSMLLNGAPLADILHALVLKIEDQRLGTHASVLLLSEDGKRVLTGAAPHLPDSYNQVIHGVEIGPEVGSCGTAAYTGQRVIVEDIEHHPYWALYKSFALVHGLRACWSEPIKDTQGKVLGTFAMYYKEIKSPTVADLTLIAEAARLASLAIERSRSLEFQRLAVKIFDRLPLALVITNASHSVLYANDAFKLMVCLQPDDILAFNPEQFFSPSEPHEIASLFNHLSEGKMWQGELVGLRNNGETFYLDLTVTVFRESHSADLGFAWLFSDVSERKKAAQLIKYQANNDSLTGLANRNALFRQIQELINADSLTPGFSFMLMDLDNFKQVNDTYGHDKGDVLLVQMVEQVKICLDPQAVFARLGGDEFAILLPGVVTQRELSQLADKINKQVYRRYELSHDKGVYSSVSIGIARFPEDALDLEQLLNCADQAMYISKANGRNRYHFFTEQMQQNAERIANLHTLLKQALEQNAFELYFQPIVDATTGLIVRAEVLLRWQHEGQFISPDEFIPIAENSGLIVSIGRCVRQAVMQTIVEMQALGWPMSLAINVSTFEFWSHELQDEFCDSFTDIIEGLGVEDFPYELITLEITESLLMKKHAHLIQVLNELRARGIKISLDDFGTGYSSLSYLANFPIDQIKIDKSFIDRLAEGERHLALIEAIVRLSHALNLRVTAEGVETQEQLQVMMDNHIQEIQGYLFYKPIPKAVFFELLAKQAVISPHSLEHHHHHH | failed |
| MDELHPGYLVGLLVLLVACSAFFSCVETALLNLDRYRLRLQAKQGLRGARRSSWLLLHDDRLRGTLLFGRTLVNVSAAALASWAALRHWGVIGLAVAIPGMTLLLLLFGALLPRRYGALRSERVALPLSLPLLILQRLCWPLLWLLTLLSNALLRLLGVAAAEQDDSGRSRDEEALHPADNPQASEVNRHDMLLGLLDLEKVTVNDLMIPRNEIEGIDLDDELEVIVEQLRTTSHTRLPVYRDDVNQIEGVVHMRQIARLLTQGRLTKENLRQACMEPYFVPESTPLSTQLVNFQKEKRRIGVVVDEYGEVIGIVTLEDILEEIVGDFNDLDSLDNPDIQAQEDGSFVIDGSANLRELNKSLGWQLPCDGPKTLNGLVTEALEQIPDCAVCLRIGPYCLEIQQSAENRVKSVRAWHPRALTPLVESDASV | failed |
| MDELRFAAVGLNHNHIYGQVNCLLRAGARLAGFHEKDDALAAEFSAVYADARRIATAEEILEDENIGLIVSAAVSSERAELAIRAMQHGKDVLVDKPGMTSFDQLAKLRRVQAETGRIFSILYSEHFESPATVKAGELVAAGAIGEVVHIVGLGPHRLRRETRPDWFFRRADYGGILTDIASHQCEQFLFFTGVNDATVLSASVGNQSVPDAPELQDTGSIHLSTGRTTGMIHVNWLTPEGMPTWGDGRLFIVGTSGTIEVRKTVDLAGREGGNHLFLADRNGVEHIDCSRVDLPFGRQFLADIRDRTETAMPQERCFKAMELALQAQAIAEQNGDRN | not failed |
| MDEPVRTFPITWLADYVMEDEGFSSREDINDLLMKEGFPLEPDLFMLTEIARKGIIEVTSSRDYSPEYALFLNLTFRDGSALNSRKVKVAWSEVCSPKQEGGLGLRSIAEANKVCVLKLIWRILSARRSLWVELVKKYLIRRGSFWLVKENTTCGSWIWKKILKYRDTAKSFYRVEVRNGEASSFGFDRWSEMGCLYDRLGARGCIDLGSPMTATVGEVMAGARRRKYRVAILNQVENEIVKQKLIRSNETDVALWNGKHDHYRKEFHTKETWLQIRTAKLLMENYNGIWFKHSTPKYSLITWLVQKNRVATGDKLIKWNPQVTPNCILCQHTLETWDHLFFMCPYSFQVWTKLAKGILHASFTANWTETLKLIHDNRLSKTKCFIVGYIFQNAIHSL | failed |
| MDESAALRAFQDALRTQRPEFGQFFLARLLGLDISYPDGQCLIVFEPQDFLFNPQGSLHGGIIATVMDISMGHLLNHVQGAGLTLEMKTQYLKAVRQGTVYCRGEFLQRGRSVSFLKSTLTDAQGEPLAMATSTWKALSPARAPGVDAAAR | failed |
| MDFAYSPKVQELRERVSAFMEAHVYPAEAVFERQVAEGDRWQPTAIMEELKAKAKAEGLWNLFLPESEYGAGLANHEYAPLAEIMGRSLIGPEPFNCAAPDTGNMEVLVRYGSEEQKRTWLEPLLSGEIRSAFAMTEPGVASSDATNMEARAERQGDDWVINGRKWWTSGACDPRCKILIFMGLTNPDAPRHQQHSMILVPVDTPGVKILRPLPVFGYDDAPHGHAEVLFENVRVPYENVILGEGRGFEIAQGRLGPGRIHHCMRSIGMAERALELMCKRAVSRTAFGKPLARLGGNIDHIADSRMEINMARLLTLQAAYMMDTVGNKIAQSEIAQIKVVAPNVALKVIDRAIQMHGGAGVSNDFPLAYWYAMQRTLRLADGPDEVHRAAIGKFELGKYVPREML | failed |
| MDFGKPNQVTVNYLDENKTPIAPSLYLSGLFNEAYNVPMKKIKGYTLLKYDSEILGVFTESPQTINIIYQKKAPEQALEHHHHHH | failed |
| MDFGSFLKAPEIKVKIVTYRDIFQDKAMIENRFGEEYRDRSAVIKMDSADLKQLNVKKGETVILKNSFGTVVVKAEESGYEPSHRGIAYMPKSPWSNMLVSDETGGTGIPKFKDISVTVTSAKGQKLTELGL | not failed |
| MDFVEFWSQLIRNVRWRRACVLALIVLTLYLASSMMSIILLTFIFTFLVTRLVRAVRRWVKIPPTIIVLVVYALVILGIYFAVSIYLPQLIKQTFLTFESVYRFYQNPSHDTNQVLTWVTSYFQESDILKQLKGGISVVFQYITNIGNMGLTFFLSFILSFFFTIEDHQMRVFTKRFLTSTFGWFFQDVHFFAKKFVNSFGVVLEAQFLIAIVNTVITVTFMAILKMPQLISLGLMIFILSLIPVAGVIISVVPLSLIAYSVGGLRYVVYMLLMILVVHALEAYVLNPKFMSSRTELPIFYTFVVLLVSERLFGVWGLIVGVPIFNFILDIIGVKPVHRPRPNINLKKTITFHPDSENKR | failed |
| MDFVIRRATAEEYDTLGEITAQAYLRDGLLDFGESDSYLDELRDVAKRAAAAEVLVAVADDAVLGGATFVPSGGPMADIARPGEAEIRMLAVAREARGRGAGEALVRACADRARAVPGCTGVVLSTQAAMRTAHRLYERLGFVRTPDRDWNPLPELDDIMLLTYELTL | failed |
| MDGEAFEISLLDGEEDRFGGTVVNLMEVESMTIGDFDSKLDVSLKAWKDQGKKGIWIKLPSELSSLVDTAIKKGFTYHHAENEYVMLTFWLPEPPSTLPCNASHRIGIGAFVLNKNGEMLVVQENSGYFKDKNVWKVPTGTIKEGESIWAGAVREVKEETDIDAEFVEVLSFMESHQAVWQRKTDIFFVCELEARTFEIQKQDSEIHAAKWMPVEEYVNQPYHNKEGNEMFKLIANICLKRSREKYTGFVLTTNSAKKSLYCSVDHANLLKETADQASTSLSD | failed |
| MDGIFAGIICNQANRCLTWTSQQLFSEKISGAEGTKLDDEFLDMERKIDVTNKVVAEILSKTTEYLQPNPAYRAKLGMLNTVSKIRGQVKTTGYPQTEGLLGDCMLKYGKELGEDSTFGNALIEVGESMKLMAEVKDSLDINVKQTFIDPLQLLQDKDLKEIGHHLKKLEGRRLDYDYKKKRVGKIPDEEVRQAVEKFEESKELAERSMFNFLENDVEQVSQLAVFIEAALDYHRQSTEILQELQSKLQMRISAASSVPRREYKPRPVKRSSSELNGVSTTSVVKTTGSNIPMDQPCCRGLYDFEPENQGELGFKEGDIITLTNQIDENWYEGMIHGESGFFPINYVEVIVPLPQ | not failed |
| MDGKRVWLSDDELTRFIEQAETPHQRLAFLLAGRVGLRRSEIIEVCPQDLVDGPTGDHIRVWESYAKRDKYREPPVPQEVVTIAETLAYQQDDDEPLLDVAGSTVYRWVRRAADELEEETGDRGWQYLDVHDLRRTWGTYLLEQGVIPSVVMSFGGWEDWDTFRKHYLGLEHHHHHH | failed |
| MDGLFEFCQLSTGGSVAGAVKLNRQQTDMAVNWAGGLHHAKKYEASGFCYVNDIVLAILELLKYHQRVLYIDIDIHHGDGVEEAFYTTDRVMTVSFHKYGEYFPGTGDLRDIGAGKGKYYAVNFPMCDGIDDESYGQIFKPIISKVMEMYQPSAVVLQCGADSLSGDRLGCFNLTVKGHAKCVEVVKTFNLPLLMLGGGGYTIRNVARCWTYETAVALDCEIPNELPYNDYFEYFGPDFKLHISPSNMTNQNTPEYMEKIKQRLFENLRMLPHAPGVQMQAIPEDAVHEDSGDEDGEDPDKRISIRASDKRIACDLEHHHHHH | not failed |
